Data as given in the supplement of paper PMC10567573.

B1: NET1 (parent)
chain: IKRTIRVLDVNNQSFREQEEPSNK

Variants of: B1
Assay: protein stability index of a GFP-peptide fusion (GPS, HEK-293T) (PSI 1-6); higher = more stable
Settings: c terminus: a fixed tail appended
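Further: lentivirally expressed fusions sorted by FACS into six bins by GFP to DsRed ratio, PSI derived from sequencing read proportions per bin multiplied by bin number.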

Variant	protein stability index
IKRTIRVLDVNNQSFREHEEPSNK [Q18H]	3.7
IKRTIRVLDVNNQSFREFEEPSNK [Q18F]	2.52
IKRTIRVLDVNNQSFREGEEPSNK [Q18G]	3.59
IKRTIRVLDVNNQSFREEEEPSNK [Q18E]	3.76
IKRTIRVLDVNNQSFREMEEPSNK [Q18M]	3.07
IKRTIRVLDVNNQSFREKEEPSNK [Q18K]	2.91
IKRTIRVLDVNNQSFRELEEPSNK [Q18L]	3.06
IKRTIRVLDVNNQSFRESEEPSNK [Q18S]	2.79
IKRTIRVLDVNNQSFREVEEPSNK [Q18V]	3.43
IKRTIRVLDVNNQSFREIEEPSNK [Q18I]	3.1
IKRTIRVLDVNNQSFREYEEPSNK [Q18Y]	2.66
IKRTIRVLDVNNQSFREPEEPSNK [Q18P]	3.49
IKRTIRVLDVNNQSFRETEEPSNK [Q18T]	3.37
IKRTIRVLDVNNQSFREQPEPSNK [E19P]	3.44
IKRTIRVLDVNNQSFREQFEPSNK [E19F]	2.15
IKRTIRVLDVNNQSFREQSEPSNK [E19S]	2.44
IKRTIRVLDVNNQSFREQLEPSNK [E19L]	2.27
IKRTIRVLDVNNQSFREQNEPSNK [E19N]	2.89
IKRTIRVLDVNNQSFREQYEPSNK [E19Y]	2.43
IKRTIRVLDVNNQSFREQDEPSNK [E19D]	2.84
IKRTIRVLDVNNQSFREQTEPSNK [E19T]	3.34
IKRTIRVLDVNNQSFREQKEPSNK [E19K]	3.88
IKRTIRVLDVNNQSFREQIEPSNK [E19I]	2.38
IKRTIRVLDVNNQSFREQQEPSNK [E19Q]	2.76

Variant	protein stability index
IKRTIRVLDVNNQSFREQVEPSNK [E19V]	2.68
IKRTIRVLDVNNQSFREQAEPSNK [E19A]	2.57
IKRTIRVLDVNNQSFREQGEPSNK [E19G]	4.21
IKRTIRVLDVNNQSFREQHEPSNK [E19H]	2.9
IKRTIRVLDVNNQSFREQWEPSNK [E19W]	1.75
IKRTIRVLDVNNQSFREQCEPSNK [E19C]	2.74
IKRTIRVLDVNNQSFREQMEPSNK [E19M]	3.15
IKRTIRVLDVNNQSFREQREPSNK [E19R]	2.6
IKRTIRVLDVNNQSQREQEEPSNK [F15Q]	4.29
IKRTIRVLDVNNQSNREQEEPSNK [F15N]	3.82
IKRTIRVLDVNNQSVREQEEPSNK [F15V]	3.79
IKRTIRVLDVNNQSHREQEEPSNK [F15H]	4.44
IKRTIRVLDVNNQSAREQEEPSNK [F15A]	4.27
IKRTIRVLDVNNQSPREQEEPSNK [F15P]	4.67
IKRTIRVLDVNNQSRREQEEPSNK [F15R]	4.79
IKRTIRVLDVNNQSIREQEEPSNK [F15I]	3.96
IKRTIRVLDVNNQSKREQEEPSNK [F15K]	4.02
IKRTIRVLDVNNQSSREQEEPSNK [F15S]	4.3
IKRTIRVLDVNNQSYREQEEPSNK [F15Y]	3.79
IKRTIRVLDVNNQSMREQEEPSNK [F15M]	3.98
IKRTIRVLDVNNQSEREQEEPSNK [F15E]	4.79
IKRTIRVLDVNNQSLREQEEPSNK [F15L]	3.4
IKRTIRVLDVNNQSDREQEEPSNK [F15D]	4.86
IKRTIRVLDVNNQSWREQEEPSNK [F15W]	3.6

Variant	protein stability index
IKRTIRVLDVNNQSCREQEEPSNK [F15C]	4.18
IKRTIRVLDVNNQSTREQEEPSNK [F15T]	4.09
IKRTIRVLDVNNNSFREQEEPSNK [Q13N]	3.69
IKRTIRVLDVNNASFREQEEPSNK [Q13A]	4.18
IKRTIRVLDVNNWSFREQEEPSNK [Q13W]	2.51
IKRTIRVLDVNNFSFREQEEPSNK [Q13F]	2.72
IKRTIRVLDVNNTSFREQEEPSNK [Q13T]	3.37
IKRTIRVLDVNNISFREQEEPSNK [Q13I]	2.99
IKRTIRVLDVNNVSFREQEEPSNK [Q13V]	3.67
IKRTIRVLDVNNLSFREQEEPSNK [Q13L]	2.33
IKRTIRVLDVNNRSFREQEEPSNK [Q13R]	3.27
IKRTIRVLDVNNDSFREQEEPSNK [Q13D]	3.56
IKRTIRVLDVNNPSFREQEEPSNK [Q13P]	3.35
IKRTIRVLDVNNESFREQEEPSNK [Q13E]	4.26
IKRTIRVLDVNNGSFREQEEPSNK [Q13G]	3.8
IKRTIRVLDVNNMSFREQEEPSNK [Q13M]	3.8
IKRTIRVLDVNNYSFREQEEPSNK [Q13Y]	2.04
IKRTIRVLDVNNCSFREQEEPSNK [Q13C]	3.01
IKRTIRVLDVNNSSFREQEEPSNK [Q13S]	4.19
IKRTIRVLDVNNHSFREQEEPSNK [Q13H]	3.28
IKRTIRVLDVNNKSFREQEEPSNK [Q13K]	3.7
IKRTIRVLDVNNQSFREQEGPSNK [E20G]	3.19
IKRTIRVLDVNNQSFREQEAPSNK [E20A]	3.69
IKRTIRVLDVNNQSFREQEFPSNK [E20F]	2.97

Variant	protein stability index
IKRTIRVLDVNNQSFREQECPSNK [E20C]	3.27
IKRTIRVLDVNNQSFREQEHPSNK [E20H]	3.05
IKRTIRVLDVNNQSFREQEDPSNK [E20D]	3.23
IKRTIRVLDVNNQSFNEQEEPSNK [R16N]	4.57
IKRTIRVLDVNNQSFYEQEEPSNK [R16Y]	3.4
IKRTIRVLDVNNQSFMEQEEPSNK [R16M]	3.41
IKRTIRVLDVNNQSFLEQEEPSNK [R16L]	3.35
IKRTIRVLDVNNQSFSEQEEPSNK [R16S]	4.06
IKRTIRVLDVNNQSFHEQEEPSNK [R16H]	3.69
IKRTIRVLDVNNQSFEEQEEPSNK [R16E]	3.94
IKRTIRVLDVNNQSFPEQEEPSNK [R16P]	3.42
IKRTIRVLDVNNQSFCEQEEPSNK [R16C]	3.3
IKRTIRVLDVNNQSFKEQEEPSNK [R16K]	4.21
IKRTIRVLDVNNQSFVEQEEPSNK [R16V]	3.96
IKRTIRVLDVNNQSFWEQEEPSNK [R16W]	2.07
IKRTIRVLDVNNQSFGEQEEPSNK [R16G]	3.94
IKRTIRVLDVNNQSFQEQEEPSNK [R16Q]	3.43
IKRTIRVLDVNNQSFTEQEEPSNK [R16T]	3.85
IKRTIRVLDVNNQSFIEQEEPSNK [R16I]	3.83
IKRTIRVLDVNNQSFAEQEEPSNK [R16A]	4
IKRTIRVLDVNNQSFDEQEEPSNK [R16D]	4.47
IKRTIRVLDVNNQSFFEQEEPSNK [R16F]	3.47
